The results in this text go back to US20170066830A1 (MERSANA THERAPEUTICS, published 2017).

For assay [1], the target named is T1, full-length human HER2 receptor on cells (human, UniProt P04626 23-1255).
T1 construct: also called HER2 on JIMT-1 cells; HER2 on BT474, MCF7, SKBR3 cells
Nature of the assay: flow cytometry competition on JIMT-1 cells: unlabeled XMT 1518 titrated against 30 nM Alexa Fluor 647-labeled XMT 1519. (In general: Flow cytometry measures light scatter and fluorescence of single cells or particles in a stream.)

For assay [2], the target named is T1, full-length human HER2 receptor on cells. Nature of the assay: cell-based or functional assay.
The target is the same in assay [3]. Nature of the assay: flow cytometry on JIMT-1 cells, Alexa Fluor 647 goat anti-human IgG detection. The method, then:
The cell surface binding of the HER2 antibodies to JIMT-1 cells were evaluated using a Macsquant flow cytometer (Miltenyi Biotec, Bergisch Gladbach, Germany). JIMT-1 cells, grown overnight to approximately 90% confluent cultures in DMEM media (ATCC, Manassas, Va.) with 10% FBS (Gibco®, Life Technologies, Grand Island, N.Y.), were released from the plate surface by treatment with Accutase cell detachment solution (Innovative Cell Technologies, San Diego, Calif.). The detached cells were washed once with ice cold media containing 6% goat serum and resuspended in the same media. 100,000 cells were aliquoted per well of a V-bottom, 96-well plate and incubated with a range of HER2 antibody concentrations (0.05-100 nM) in 150 μl DMEM with 6% goat serum on ice for 3 hours. […] The cells were washed once with ice cold PBS (Gibco®, Life Technologies, Cat.# 10010049) and suspended in 200 μl of ice cold PBS with 1% paraformaldehyde. The amount of fluorescence bound per cell was determined by running 5000 cells for each treatment on the flow cytometer. The median fluorescence value for each treatment was graphed, and the dissociation constant, Kd, was calculated for each antibody with Graphpad Prism software by non-linear regression using the single site, specific binding model.

Assay [4] shares this target. The assay can be described thus: flow cytometry competition on JIMT-1 cells: unlabeled XMT 1519 titrated against 30 nM Alexa Fluor 647-labeled XMT 1519.
Assay [5] shares this target. Nature of the assay: cell-based or functional assay. The source holds these as a separate data set.
The target in assay [6] is T2, recombinant cynomolgus monkey HER2 extracellular domain (amino acids 1-652, Sino Biological Cat.# 90295-CO8H) (cynomolgus monkey, UniProt A0A2K5WUT7 1-622).
T2 construct: range 1-652; Bought protein; the stated range 1-652 includes the signal peptide of the construct
The assay can be described thus: ELISA, HER2 extracellular domain coated on plate, one site specific binding fit. On the technique in general: An ELISA detects its analyte on a solid surface through an enzyme-linked reagent.
Protocol: (§1) The affinity of the antibodies for recombinant human and cynomolgus monkey HER2 was determined by an ELISA assay. […] The wells were washed 4 times with TTBS (50 mM Tris-HCl, pH 7.4, 150 mM NaCl, and 0.05% Tween 20). The wells were blocked by incubation with 50 μl of TTBS containing 5% bovine serum albumin for 1 hr. […] Unbound test antibodies were removed with TTBS washes (4×). […] Unbound secondary antibody was removed by 4 TTBS washes. The HRP substrate, TMB Bethyl Laboratories#E102) was added to each well and incubated until a yellow color was visible. The reaction was stopped by the addition of 50 μl of 0.2 N sulfuric acid. […] Kd was determined by non-linear regression using the one site, specific binding model.

In assay [7] the target is recombinant human HER2 extracellular domain (amino acids 23-652, Acro Biosystems Cat.# HE2-H5225) (human, UniProt P04626 23-652). The assay is described as above.
Protocol: as §1

B1: XMT 1518 antibody (antibody, human IgG1, kappa, V domains shown)
VH: QVQLVESGGGVVQPGRSLRLSCAASGFTFSSYGMHWVRQAPGKGLEWVAGIWWDGSNEKYADSVKGRFTISRDNSKNTLYLQMNSLRAEDTAVYYCAKEAPYYAKDYMDVWGKGTTVTVSS
VL: EIVLTQSPGTLSLSPGERATLSCRASQSVSSDYLAWYQQKPGQAPRLLIYGASRRATGIPDRFSGSGSGTDFTLTISRLEPEDFAVYYCQQYVSYWTFGGGTKVEIKR
On to B1, for which the “IC50 (read off the curve)” value in assay [1] was ~3 nM. Moreover, the “AKT phosphorylation in MCF7 cells after 4 h antibody” value in assay [2] was 103 % of untreated cells.

B2: XMT 1519 antibody (antibody, human IgG1, kappa, V domains shown)
VH: EVQLVESGGGLVQPGGSLRLSCAASGFTFSSYSMNWVRQAPGKGLEWVSYISSSSSTIYYADSVKGRFTISRDNAKNSLYLQMNSLRAEDTAVYYCARGGHGYFDLWGRGTLVTVSS
VL: not shown
The EC50 (read off the curve) is the midpoint of the concentration-response curve. For the molecule B2, the “EC50 (read off the curve)” value in assay [3] was ~1 nM. In addition, the “IC50 (read off the curve)” value in assay [4] was ~5 nM. Moreover, in assay [5], the “AKT phosphorylation in BT474 cells after 4 h antibody (western)” value was 21 % of untreated cells and the “HER3 phosphorylation (Tyr 1289) in BT474 cells after 4 h antibody (western)” value is 71 % of untreated cells.

B3: Example 16H, XMT 1519-(EG2-MI-(10 kDa PHF-BA-(AF-HPA-Ala))) (antibody, human IgG1, kappa, V domains shown)
VH: EVQLVESGGGLVQPGGSLRLSCAASGFTFSSYSMNWVRQAPGKGLEWVSYISSSSSTIYYADSVKGRFTISRDNAKNSLYLQMNSLRAEDTAVYYCARGGHGYFDLWGRGTLVTVSS
VL: not shown
modifications: polymer-drug scaffolds on cysteine thiols possible; positions not given; EG2-MI-(10 kDa PHF-BA-(AF-HPA-Ala)) polymer-drug scaffolds joined to cysteine thiols of the partially reduced antibody; positions not given; DAR about 11.8:1 to about 17.5:1
The Kd is the constant that tells how readily two partners part at equilibrium. For the molecule B3, the Kd in assay [6] and in assay [7] was 0.05 nM throughout.

B4: XMT 1520 antibody (antibody, human IgG1, kappa, V domains shown)
VH: EVQLVESGGGLVQPGGSLRLSCAASGFTFSGRSMNWVRQAPGKGLEWVSYISSDSRTIYYADSVKGRFTISRDNAKNSLYLQMNSLRAEDTAVYYCARGGHGYFDLWGRGTLVTVSS
VL: not shown
Consider B4, for which, in assay [3], the “EC50 (read off the curve)” value was ~1 nM. For the same molecule, in assay [5], the “AKT phosphorylation in BT474 cells after 4 h antibody (western)” value was 30 % of untreated cells and the “HER3 phosphorylation (Tyr 1289) in BT474 cells after 4 h antibody (western)” value was 76 % of untreated cells.
